Reference: patent publication US6825325 (FRAUNHOFER GESELLSCHAFT ZUR FORDERUNG DER ANGEWANDTEN …, dated 2004)

Experiments:
[1] = biological target: T1, GST-30K fusion protein (bacterially expressed 30K TMV movement protein fused to GST) (Schistosoma japonicum; Tobacco mosaic …, UniProt P03583 1-268); test: ELISA of scFvs (member of the panel of 10)
T1 construct: not shown: glutathione S-transferase, Schistosoma japonicum (Pharmacia GST-System)
T1 sequence (looked up): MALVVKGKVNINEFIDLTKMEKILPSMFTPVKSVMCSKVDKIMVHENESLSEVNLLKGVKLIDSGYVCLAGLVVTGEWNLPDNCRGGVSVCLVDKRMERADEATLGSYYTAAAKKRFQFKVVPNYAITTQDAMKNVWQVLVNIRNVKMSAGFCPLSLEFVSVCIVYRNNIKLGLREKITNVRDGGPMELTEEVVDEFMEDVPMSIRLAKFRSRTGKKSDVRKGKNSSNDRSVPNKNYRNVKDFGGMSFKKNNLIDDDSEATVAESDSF

[2] = biological target: bacterially expressed GST-protein alone (Schistosoma japonicum, UniProt P08515 1-218 = GST); test: ELISA of scFvs (member of the panel of 10)
bacterially expressed GST-protein alone, sequence (P08515 whole entry): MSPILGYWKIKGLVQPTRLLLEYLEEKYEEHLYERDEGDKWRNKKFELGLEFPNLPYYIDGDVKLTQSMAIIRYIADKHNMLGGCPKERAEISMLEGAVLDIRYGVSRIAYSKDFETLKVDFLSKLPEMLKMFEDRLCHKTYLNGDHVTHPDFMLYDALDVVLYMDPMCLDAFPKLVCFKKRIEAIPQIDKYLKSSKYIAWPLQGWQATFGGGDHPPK

B1: scFv 30-2 (scFv)
scFv: EVKLQQSGAELVKPGASVKISCKASDYSFTGYNMNWVKQSHGKSLEWIGNINPYYGSTSYNQKFKGKATLTVDKSSSTAYMQLNSLTSEDSAVYYCAVGGNYVDWFAYWGQGTLVTVSSGGGGSGGGGSGGGGSDILLTQSPLSLPVSLGDHASISCRSSQSLVHSNGNTYLHWYLQNPGQSPKLLIYKVSNRFSGIPDRFSGSGSGTDFTLKISRVEAEDLGVYFCSQSTHVPYTFGGGTKLELKRAVDAAAEQKLISEEDLNGAA
notes: also called 30K specific scFv No. 2; scFv 30K-2
B1: binds [1]; no binding [2].
